Data as given in paper PMC8254828.

Target: 3XHA-ankyrin-G F1609R (UniProt G5E8K5)
Chain of UniProt G5E8K5 (G5E8K5 whole entry F1609R): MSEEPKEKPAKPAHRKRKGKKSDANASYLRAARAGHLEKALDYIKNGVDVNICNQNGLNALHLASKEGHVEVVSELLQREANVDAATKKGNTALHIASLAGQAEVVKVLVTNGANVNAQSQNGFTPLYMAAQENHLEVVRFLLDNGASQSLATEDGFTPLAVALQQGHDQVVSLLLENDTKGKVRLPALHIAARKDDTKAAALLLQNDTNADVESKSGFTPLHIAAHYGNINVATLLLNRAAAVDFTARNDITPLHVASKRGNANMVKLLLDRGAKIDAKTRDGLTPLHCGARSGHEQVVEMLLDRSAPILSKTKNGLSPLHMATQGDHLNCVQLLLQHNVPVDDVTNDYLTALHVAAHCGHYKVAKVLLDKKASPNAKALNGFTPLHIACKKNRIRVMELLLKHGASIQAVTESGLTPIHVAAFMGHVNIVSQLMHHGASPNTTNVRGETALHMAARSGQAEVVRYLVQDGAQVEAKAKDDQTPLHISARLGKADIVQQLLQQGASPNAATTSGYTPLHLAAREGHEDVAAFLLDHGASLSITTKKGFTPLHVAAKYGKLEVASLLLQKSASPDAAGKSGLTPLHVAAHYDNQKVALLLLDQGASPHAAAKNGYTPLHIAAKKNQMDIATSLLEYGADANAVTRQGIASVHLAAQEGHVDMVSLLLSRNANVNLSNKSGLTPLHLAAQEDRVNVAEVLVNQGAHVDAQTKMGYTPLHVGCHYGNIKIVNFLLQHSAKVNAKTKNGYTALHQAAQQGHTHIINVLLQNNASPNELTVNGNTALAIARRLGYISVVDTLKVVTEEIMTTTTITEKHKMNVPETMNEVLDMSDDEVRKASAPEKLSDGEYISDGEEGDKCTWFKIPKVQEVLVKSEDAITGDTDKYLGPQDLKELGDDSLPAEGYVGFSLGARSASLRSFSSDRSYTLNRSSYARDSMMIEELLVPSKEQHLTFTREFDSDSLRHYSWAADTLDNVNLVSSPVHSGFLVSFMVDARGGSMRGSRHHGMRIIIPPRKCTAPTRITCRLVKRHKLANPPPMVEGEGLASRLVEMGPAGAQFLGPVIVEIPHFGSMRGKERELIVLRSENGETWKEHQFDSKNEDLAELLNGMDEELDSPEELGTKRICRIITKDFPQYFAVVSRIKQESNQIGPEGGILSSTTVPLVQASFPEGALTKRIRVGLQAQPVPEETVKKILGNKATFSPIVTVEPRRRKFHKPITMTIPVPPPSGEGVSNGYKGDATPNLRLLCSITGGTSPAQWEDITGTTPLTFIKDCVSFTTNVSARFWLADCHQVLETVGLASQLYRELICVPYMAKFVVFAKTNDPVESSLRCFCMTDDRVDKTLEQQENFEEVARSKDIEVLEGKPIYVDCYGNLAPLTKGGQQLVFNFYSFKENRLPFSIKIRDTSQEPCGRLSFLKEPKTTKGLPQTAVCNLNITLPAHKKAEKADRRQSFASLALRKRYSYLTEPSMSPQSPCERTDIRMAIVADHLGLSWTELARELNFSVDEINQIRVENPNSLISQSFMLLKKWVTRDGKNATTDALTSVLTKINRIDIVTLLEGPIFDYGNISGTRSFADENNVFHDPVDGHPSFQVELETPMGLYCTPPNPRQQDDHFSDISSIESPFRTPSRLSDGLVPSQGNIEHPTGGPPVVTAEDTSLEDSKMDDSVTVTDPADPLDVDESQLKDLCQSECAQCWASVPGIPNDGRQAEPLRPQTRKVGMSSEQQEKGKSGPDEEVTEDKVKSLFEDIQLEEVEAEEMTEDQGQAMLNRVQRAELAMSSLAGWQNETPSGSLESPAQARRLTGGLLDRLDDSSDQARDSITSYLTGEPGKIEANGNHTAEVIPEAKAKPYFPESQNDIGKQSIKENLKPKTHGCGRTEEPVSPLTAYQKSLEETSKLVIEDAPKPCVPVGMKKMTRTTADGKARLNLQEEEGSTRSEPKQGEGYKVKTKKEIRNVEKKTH

FRAP in dendritic spines of primary cortical neurons: mobile fraction of GFP-ankyrin-G^F1609R against GFP-ankyrin-G^WT, 200 s after photobleaching (GFP-tagged forms of the constructs): 22.4%
Substance: Homer1b/c, endogenous (from UniProt Q9Z2Y3 1-366) (natural protein)
